These results are taken from patent US20160168247A1 (published 2016).

Residue numbers refer to the chain shown, from its start.

In assay [1] the target is T1, HSC-F (cynomolgus monkey, UniProt Q95LI8 22-171; Q95LI7 23-181).
T1 chain: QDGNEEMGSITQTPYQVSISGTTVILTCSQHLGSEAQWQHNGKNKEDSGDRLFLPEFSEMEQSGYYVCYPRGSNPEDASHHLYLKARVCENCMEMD
Put plainly: FACS binding; Fig 2A.

Assay [2] addresses T1, HSC-F. Nature of the assay: FACS binding.
Assay [3] deals with human CD3 (on the human T-cell line Jurkat or on human T-cells) (human, UniProt P09693 23-182; P20963 22-164). Nature of the assay: FACS binding.
In assay [4] the target is T1, HSC-F. Nature of the assay: FACS binding.

Chain of human CD3 (on the human T-cell line Jurkat or on human T-cells) (chain, as listed by the source, chain 1 of 4): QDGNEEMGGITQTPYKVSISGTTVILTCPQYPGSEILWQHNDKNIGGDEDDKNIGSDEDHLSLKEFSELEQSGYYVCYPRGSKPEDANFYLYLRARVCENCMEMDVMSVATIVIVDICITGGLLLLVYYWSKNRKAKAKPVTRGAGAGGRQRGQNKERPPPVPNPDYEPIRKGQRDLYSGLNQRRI
Chain of human CD3 (on the human T-cell line Jurkat or on human T-cells) (chain, as listed by the source, chain 2 of 4): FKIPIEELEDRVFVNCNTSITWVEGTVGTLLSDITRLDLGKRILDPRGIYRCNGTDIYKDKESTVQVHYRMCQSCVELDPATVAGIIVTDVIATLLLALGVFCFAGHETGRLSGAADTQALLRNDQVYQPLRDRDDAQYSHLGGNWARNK
Chain of human CD3 (on the human T-cell line Jurkat or on human T-cells) (P09693 23-182, chain 3 of 4): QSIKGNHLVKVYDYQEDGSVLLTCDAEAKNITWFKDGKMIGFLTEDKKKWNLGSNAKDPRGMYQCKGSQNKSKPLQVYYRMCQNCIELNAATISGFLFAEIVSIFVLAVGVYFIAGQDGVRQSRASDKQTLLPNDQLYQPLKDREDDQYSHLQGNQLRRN
Chain of human CD3 (on the human T-cell line Jurkat or on human T-cells) (P20963 22-164, chain 4 of 4): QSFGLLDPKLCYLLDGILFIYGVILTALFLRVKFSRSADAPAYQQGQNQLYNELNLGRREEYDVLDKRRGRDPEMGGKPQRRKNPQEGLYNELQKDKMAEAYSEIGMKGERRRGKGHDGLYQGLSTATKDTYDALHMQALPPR

B1: IgG1-huCD3-H1L1 (antibody, V domains shown)
VH: EVKLVESGGGLVQPGGSLRLSCAASGFTFNTYAMNWVRQAPGKGLEWVARIRSKYNNYATYYADSVKDRFTISRDDSKSSLYLQMNNLKTEDTAMYYCVRHGNFGNSYVSWFAYWGQGTLVTVSS
VL: not shown
B1 yielded an EC50 with HSC-F [1] of 0.37 µg/mL.

B2: bsIgG1-huCD3-H4L1xHER2-LFLEDA (bispecific antibody, V domains shown)
VH 1: B1 VH with Q13K, G16R, S80I, N87S, L120M
VL 1: not shown
VH 2: QVQLVQSGAEVKKPGASVKVSCKASGYTFTNYGISWVRQAPGQGLEWMGWLSAYSGNTIYAQKLQGRVTMTTDTSTTTAYMELRSLRSDDTAVYYCARDRIVVRPDYFDYWGQGTLVTVSS
VL 2: EIVLTQSPATLSLSPGERATLSCRASQSVSSYLAWYQQKPGQAPRLLIYDASNRATGIPARFSGSGSGTDFTLTISSLEPEDFAVYYCQQRSNWPRTFGQGTKVEIK
In the assay with HSC-F [2], B2 came in with an EC50 of 0.36 µg/mL.

B3: bsIgG1-huCD3-H3L1xHER2-LFLEDA (bispecific antibody, V domains shown)
VH 1: B1 VH with Q13K, G16R, S80I, N87S
VL 1: not shown
VH 2: B2 VH 2
VL 2: B2 VL 2
As to B3, a half-maximal effect in the assay with HSC-F [2] (EC50) was put at 0.28 µg/mL.

B4: bsIgG1-huCD3-H1L1xHER2-LFLEDA (bispecific antibody, V domains shown)
VH 1: B1 VH
VL 1: not shown
VH 2: B2 VH 2
VL 2: B2 VL 2
In the assay with HSC-F [2], B4 displayed an EC50 of 0.32 µg/mL.

B5: bsIgG1-huCD3-H4L1×HER2-LFLEDA (bispecific antibody, V domains shown)
VH 1: B1 VH with Q13K, G16R, S80I, N87S, L120M
VL 1: not shown
VH 2: B2 VH 2
VL 2: B2 VL 2
With B5, the half-maximal effective concentration (EC50) in assay [3] came out at 0.62 µg/mL.

B6: bsIgG1-huCD3-H3L3×HER2-LFLEDA (bispecific antibody, V domains shown)
VH 1: B1 VH with Q13K, G16R, S80I, N87S
VL 1: QAVVTQEPSFSVSPGGTVTLTCRSSTGAVTTSNYANWVQQTPGQAFRGLIGGTNKRAPGVPARFSGSILGNKAALTITGAQADDESDYYCALWYSNLWVFGGGTKLTVL
VH 2: B2 VH 2
VL 2: B2 VL 2
B6 returned an EC50 in assay [3] of 0.74 µg/mL.

B7: bsIgG1-huCD3-H3L3xHER2-LFLEDA (bispecific antibody, V domains shown)
VH 1: B1 VH with Q13K, G16R, S80I, N87S
VL 1: B6 VL 1
VH 2: B2 VH 2
VL 2: B2 VL 2
With B7, a half-maximal effect with HSC-F [2] (EC50) was put at 0.26 µg/mL.

B8: bsIgG1-huCD3-H4L3×HER2-LFLEDA (bispecific antibody, V domains shown)
VH 1: B1 VH with Q13K, G16R, S80I, N87S, L120M
VL 1: B6 VL 1
VH 2: B2 VH 2
VL 2: B2 VL 2
In the case of B8, the response in assay [3] was half-maximal at 0.59 µg/mL (EC50).

B9: bsIgG1-huCD3-H1L3xHER2-LFLEDA (bispecific antibody, V domains shown)
VH 1: B1 VH
VL 1: B6 VL 1
VH 2: B2 VH 2
VL 2: B2 VL 2
In turn, B9 had an EC50 with HSC-F [2] of 0.25 µg/mL.

B10: IgG1-huCD3-H1L1-LFLEDA (antibody, V domains shown)
VH: B1 VH
VL: not shown
As to B10, the EC50 with HSC-F [4] was 0.03 µg/mL.

B11: bsIgG1-huCD3-H1L3×HER2-LFLEDA (bispecific antibody, V domains shown)
VH 1: B1 VH
VL 1: B6 VL 1
VH 2: B2 VH 2
VL 2: B2 VL 2
Molecule B11 yielded an EC50 in assay [3] of 0.58 µg/mL.
